In a protein production outcome set (Wang et al. 2014) one finds protein production data, which are given here for 15 sequences.

This data set can be described thus: label from the status in PepcDB records.

In the case of “MVNQEKTLDVGFTHADFAALLDRYDYHFNPGDIVAGTVFSIEPKGALIDIGAKTAAYIPIQEMSINRIESPEEVLQPNETREFFILADENEEGQLTLSIRRIEYMRAWERVRQLQAEDATVRSQVFATNRGGALVRIEGLRGFIPGSHISTRVNKEELVGEELPLKFLEVDEERNRLVLSHRRALVERKMNKLEVGEVVVGTVRGIKPYGAFIDIGGVSGLLHISEISHDHIDTPHSVFNVNDQVKVMIIDLDAERGRISLSTKQLEPEPGDMVKNPQLVYEKAEEMAERYRQQLLQQQQQAAGETPEEGMEDIPEATEDDSPAPILQEALEHHHHHH”, the protein production result is recorded as “failed”.
In the case of “MVPAAMRGLNLALVDIGAGTSDIAITGQGTISGYAMVPSAGDEITEALASALILDFNTAERVKRQLSTRENLTFTDVVGQRHTLAAAELMEIIKPAVTELARQVATQIILLNGKPPQAVLLIGGGSLTPGLAAALAGQLEISPERVALEHHHHHH” it was “failed”.
In the case of “MVPKFYKLSNGFKIPSIALGTYDIPRSQTAEIVYEGVKCGYRHFDTAVLYGNEKEVGDGIIKWLNEDPGNHKREEIFYTTKLWNSQNGYKRAKAAIRQCLNEVSGLQYIDLLLIHSPLEGSKLRLETWRAMQEAVDEGLVKSIGVSNYGKKHIDELLNWPELKHKPVVNQIEISPWIMRQELADYCKSKGLVVEAFAPLCHGYKMTNPDLLKVCKEVDRNPGQVLIRWSLQHGYLPLPKTKTVKRLEGNLAAYNFELSDEQMKFLDHPDAYEPTDWECTDAP” it was “failed”.
In the case of “MVQELLKQLQNGEAKFADVLAYIESRFEHQPTAFKNGQQQNAATENQGSAKVFSLAQIEGLNQTETLSLFAEHYAAVLNTPEGTDHQNIRQFMQHGWDGVTFEGEALQAK” it was “failed”.
Take “MVQIAGTPVPLSAKSRGPNALSSLLAALFLLLSQPASGAEAKQCIDNAELDAADKAFNSLHYAKADSLYQSMLQTGDQSSTLYWKLARLNISIAEAIDPSERKKRIPFYNKAVEYARKSVQLDENNASAHTWLAAALALKADKIGAKEKLNRAAEIKRELDKALALNPNDDVAWSMLGSYNFEASKIGWFSRFMGSTFVGKMPKGSREEAEKDFKKAISLNPRVIRHYHELALLYLEEDRKQEALNTLRIAETRPVLMKSDVRRLKEIKKLIAKLSKEIEEK”: the protein production entry is “failed”.
In the case of “MVQSAPASEIAALILRGFDDYREQFREITDGARARFEQAQWQEAQRASAQRINLYEEKVAETVAGLRAGLADSELLDVERWPIIKSAYIAQIDLRLDDELAETWFNSIFCGLFSHDNISDGTMFVHTTRPSLRAHARAPYTRTYRPGGDLRQALEKIFDDYRFDVPYDDRERDLERIDALLHSNLPDWVCKDPDLAIELIGSVFYRNKGAYLVGRLFTPDEQWPLVFPLLHREDHGIQFDTVITDEAEVSIIFSFTRSYFMVDVPVPAELVAFLKRLLPGKHLAELYTSIGFYKQGKSEFYRALINHLATTDDRFVMAPGVRGMVMSVFTLPGFNTVFKIIKDRFNPSKSVDHATVIQKYQLVKNHDRVGRLADTQQFADFRFPVSKFEPECLAELLEVAPSTVVMEGDVVLIRHCWTERRMTPLNIYLENASEAQTREALNDYGLAIKQLAAANIFPGDMLLKNFGVTRHGRVVFYDYDEICYLTEVNFRYIPEPRFPEDEMSSEPWYSVGPNDVFPEEFPRFLFVDLNQRRLFAKLHGNLYDAKYWQGLQEQIREGKVIDVFPYRRQETPEQLLG” it was “failed”; in that of “MVRADEMMDICMLAGEIMLINGAETYRVEETLERMAKAGQFRNVHSFVTTTGIFLSFEEEGAGDVMQMIRVDDRMQDLNKVTLVNQVSREFVNGEIDAAEALTKLQNIAKQPMNYSPLLLHTASGVAGGAFSYLFGGNLFDTLPAFIAGFVASMAVVHLQSYLKVRFFAEFMAAFTGGAVAILLVLIGLGENVDQVIIGTLMPLVPGIPLTNAVRDLISGDLLAGVTRGAECFVTSLSIATGIALAIALLS”, “failed”.
In the case of “MVRKGQMIIGAFACLIASMSWGAMFPVADHALEYIDPFYFSLIRYGAVAIMLIVLLLMKEGKQAFRLEGRGRLLVFFGTMAFTVYNVLIFLGQMLMGKSGVMVASIMEALMPMISICILWGYKRVKPKKYMITSMIIAFIGAVFVITKGDVSFFLTLKDNMFSLACIFVGVVGWVIYTMGGQTCSDWSTLRYSTLTCVFGTTVTGIITVLITSLGYVSVPSMGTISVVKYDLLFMMTLPGIVALLAWNYGVKILSSINGILFINFVPITTLVIMMMQGYQITMFDIVGTLFVIAALIRNNVCQRKEENINKKMLQEEQLRQAV” it was “failed”; in that of “MVRVGMRAAPRVSLEALKAALGGLKLSEAKVYLITDWQDKRDQARYALLLHTGKKDLLVPDAFGPAFPGGEEALSELVGLLLAQGARRFYEAVVSPGEMTALLDLPPEELLKRVMAIANPTDPGIYLKRAA”, “not failed”; in that of “MVRVLSAGPELAFRSGDVVAPARTHPLVAAAPSCPMTAAAPRERADRWPRREDLFAIAYYLAAAAVLAWAGYAAWRIGVVLAGGALQQVGVRSCRQRDASRCVNATFDRIALYVVLGQASFFLTTALAAAVTGGEQSPLILPFLGSYFVAVSVVGDRVATRGLLAATAFGAAVLALLPDAVAGPALPALQRGVLTVVSVLGVGALLAPAHAETRRKRDQVARARSEMVSDALSRAQGLEQVGAKVAHELKNPLTGVKALVQLGLRNPAEAASHERLEVVDREVTRMQEIIQNYLSFNRPLQSVNPRQVALGPLVSDTMLVLSARADEARVRLYARGDASLEADPRRLKEALLNLVANAIEATPAGGEVVVEARELSGDEVELVVRDTGRGMPPETLRRIGTPFFTTRDDGTGLGVVLARAVIVQHGGTLRYESEPGSGTKVLVTLPRAAKRSGDVARAAGG”, “failed”.
Take “MVRVPLTAEELERGQRLGELLRSARGDMSMVTVAFDAGISVETLRKIETGRIATPAFFTIAAVARVLDLSLDDVAAVVTFGPVSTS”: the protein production result is reported as “not failed”.
With “MVSAAGELGTLRQRAWAAAANVVDPEIPVLTIEDLGVLRDVTVSGDRIEVSITPTYSGCPAMTMIALEIELALAREGIAGAKITTVLSPAWTTDWMSDAGRRKLRDYGIAPPLSGGGRRALFGEQQVACPQCGSIATTVLSEFGSTSCKALWRCLDCREPFDYFKCH” the entry was “failed”.
With “MVSACGLIALGLDNQAARMAARLRDLAREWRALPPHAARRGAVAEQVAVLDRRHGLYSRALLLNYGALFAFVVTSLLWLGQAYWSVPPELPVLVFGLGVAMLAAMAVLVIASITLARSTIEAEAAEVLRERRAPPASGRPAPARG” the entry was “failed”; with “MVSANREMAVYCFDTLVSHYNNEETPPPAFEEANHPLFVTWKKIVNGGEPRLRGCIGTLEARRLISGFKDYALTSALRDRRFPPIQAKELPSLQCTVSVLTDYEDAEDYLDWEVGKHGIIIEFTEPETNTKRSATYLPEVPAHEGWTKIEAIDSLVRKAGYNGVITEAVRRRINLTRYQSTLFSMHYSEYLSYVKATRGVVGPVINGINKHAFA”, “failed”.
With “MVSLIAKIHRRRAYLTVIAIMTFIVRLIPSRNFTLAGNDAYIHHDIVMRIAREGLGIIGHDIPSLMGLKAYAYPPLFHVMGYGLYLLFRSELVFFFISPLLGTATVLVIYKVARETFEREEVALLSAFLFSMVPSFVARTSVFIPESMGLLLTSGILYMLVKYLKTTPGYPDIDKFELKAFSNLFRGDLRYILGGLALFVIYLFTHRGWVFLLIALLLLAVTFLTPSFRKRPLEFGLIFLLIGAGIIEFITFAARFQSVPVTILGFPKWMGVLQLILGIYGASLLLRSKNPIHRFLIIWATAFMIIGTYSFRFRDPYAAIPLSLMGGYAFSEVKGRLYASKRFKSYSIMKRDVKPFLRTGIFALLVLMPLAQGAAIAYTGVTTPSPQQNAAFRWINDNTPQDAVFLSAIEDSYSLIGNTHRRDVLLWKTVYEGFMGSAPSLKENTMTRDEVSAIFQSSIPSETSYLLERNNISYIYISKSMHMKGIGLQLPVDPHFKTCFVSGDVSVYRYIKNPGIQSNYSSITVNGEDGKVVEFIEKFWNGYSQGTEPSHQGVSTL” the entry was “failed”.
